{"source": "paper doi:10.1101/2022.11.04.515266", "key": {"[1]": {"molecular_target": "Sinorhizobium meliloti Clr, C-terminally His6-tagged (Sinorhizobium meliloti)", "assay": "SEC"}, "[2]": {"molecular_target": "Sinorhizobium meliloti Clr, C-terminally His6-tagged (Sinorhizobium meliloti)", "assay": "crystal structure"}}, "data": [{"substance": "Sinorhizobium meliloti Clr, C-terminally His6-tagged (natural protein)", "values": [{"measurement": "percent in the monomeric state (monomer-dimer equilibrium)", "setting": "[1]", "result": 86, "unit": "%"}, {"measurement": "stoichiometry N", "setting": "[2]", "result": 2}]}]}
